T1: Rhesus negative rbc, phenotype ccddee (Rhesus c and e antigens, no D) (human, UniProt P18577 2-417)
T1 construct: whole, on cells; the thing tested is the whole red cell; also called rr
T1 sequence (looked up): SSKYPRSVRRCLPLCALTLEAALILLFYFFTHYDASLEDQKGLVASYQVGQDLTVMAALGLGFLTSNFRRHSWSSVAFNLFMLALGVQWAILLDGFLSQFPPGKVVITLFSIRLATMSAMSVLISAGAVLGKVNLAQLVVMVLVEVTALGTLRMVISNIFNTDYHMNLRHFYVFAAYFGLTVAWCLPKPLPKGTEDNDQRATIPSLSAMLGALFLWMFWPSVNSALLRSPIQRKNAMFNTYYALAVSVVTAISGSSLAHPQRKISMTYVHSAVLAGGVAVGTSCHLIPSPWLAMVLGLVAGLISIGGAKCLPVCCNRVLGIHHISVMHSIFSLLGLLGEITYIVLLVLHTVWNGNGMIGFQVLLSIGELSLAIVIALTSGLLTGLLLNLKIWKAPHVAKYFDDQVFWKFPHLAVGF

T2: Rhesus D antigen (human, UniProt Q02161 2-417)
T2 construct: whole, on cells; R1R1 cells also carry C and e; also called RhD; on rbc R1R1 (CDe/CDe, CCDDee)
T2 sequence (looked up): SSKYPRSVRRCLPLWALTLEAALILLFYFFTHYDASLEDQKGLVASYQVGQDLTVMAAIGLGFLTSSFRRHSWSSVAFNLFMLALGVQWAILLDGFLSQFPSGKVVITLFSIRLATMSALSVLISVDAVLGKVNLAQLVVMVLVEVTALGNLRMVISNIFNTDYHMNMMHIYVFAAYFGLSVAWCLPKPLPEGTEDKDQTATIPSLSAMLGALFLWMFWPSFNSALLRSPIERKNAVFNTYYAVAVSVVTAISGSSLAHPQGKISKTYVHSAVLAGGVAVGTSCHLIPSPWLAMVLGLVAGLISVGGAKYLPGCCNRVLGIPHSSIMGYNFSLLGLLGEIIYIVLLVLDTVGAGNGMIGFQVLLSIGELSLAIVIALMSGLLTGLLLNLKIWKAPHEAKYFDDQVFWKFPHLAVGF

B1: Fab clone LD2-14 (Fab, V domains shown)
VH: QVKLLESGGGVVQPGGSLRVACVASGFTFRNFGMHWVRQAPGKGLEWVAFIWFDASNKGYGDSVKGRFTVSRDNSKNTLYLQMNGLRAEDTAVYYCAREKAVRGISRYNYYMDVWGKGTTVTVSS
VL: VMTQSPSSLSASVGDRVTITCRASQSIINNLNWYQQKPGKAPELLIYAASSLQSGVPSRFRGSGSGRDFTLTVTSLQPEDFATYYCQQSYSTLWTFGQGTKVEIK
notes: human soluble Fab from pComb3 in E. coli
B2: Fab clone LD1-117 (Fab, V domains shown)
VH: QVKLLESGGGVVQPGKSLRLSCAASGFSFNSHGMHWVRQAPGKGLEWVAFIWFDGSNKYYADSVKGRFTITRDNSKNTLYLQMNSLRAEDTAVYYCARETSVRLGYSRYNYYMDVWGKGTTVTISS
VL: VMTQSPSSLSASVGDRVTITCRASQSIRSHLNWYQQKPGKAPKLLIYAASSLQGGVPSRFSGSGSGTDFTLTISSLQPEDFATYYCQQSYRAPQWTFGQGTKVEIK
notes: as for B1
B3: Fab clone LD2-17 (Fab, V domains shown)
VH: QVKLLESGGGVVQPGGSLRLSCVASGFTFRSYGMHWVRQAPGKGLEWVAFIWFDGSNKGYVDSVKGRFTISRDNSKNTLYLQMKSLRAEDTAVYYCAREKALRGISRYNYYLDVWGKGTTVTVSS
VL: VMTQSPFSLSASVGDRVTITCRASQNIRSFLSWYQQKPGTAPKLLIYAASRLQSGVPSRFSGSGSGTDFTLTISTLQPEDFATYYCQQSYSAPWTFGQGTKLEIK
notes: as for B1
B4: Fab clone LD2-20 (Fab, V domains shown)
VH: B3 VH with F29S
VL: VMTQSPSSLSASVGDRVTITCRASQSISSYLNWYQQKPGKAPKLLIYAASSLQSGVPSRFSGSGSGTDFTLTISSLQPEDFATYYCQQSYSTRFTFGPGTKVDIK
notes: as for B1
B5: Fab clone LD2-5 (Fab, V domains shown)
VH: B3 VH with V11L, T78M, K84N, T119A
VL: VMTQSPSSLSASIGDRVTITCRASQSVTRSLNWYQQKPGKAPRLLIFAASTLQSGVPSRFSGSGSGTDFTLTISSLQPEDFGTYYCQQNYRTPQWTFGQGTKVEIK
notes: as for B1
B6: Fab clone LD2-11 (Fab, V domains shown)
VH: QVKLLESGGGVVQPGGSLRLSCEASGFTLRSSGMHWVRQAPGKGLEWVALIWFDGSIRSYAESVKGRFTISRDTSKNTLYLQMRSLSADDTAVYYCARDKAVRGISRYNYYMDVWGKGTTVTVSS
VL: VLTQSPSSLSASIRDRVTITCRASQNIGSYLNWYQHKPGTAPKLLIYAVSALQSGVPSRFSGSRSGTDFTLTISSLQPEDFATYYCQQSYSPPYTFGQGTNLQIK
notes: as for B1
B7: Fab clone LD2-4 (Fab, V domains shown)
VH: B6 VH
VL: VMTQSPSSLSASVGDRVTITCRTSQTISRNLNWYQQKPGKAPKLLIYATSSLQSGVPSRFSGSGSGTDFTLTINSLQPEDFATYYCQQSYTTPSFGQGTKVEIK
notes: as for B1
B8: Fab clone LD1-84 (Fab, V domains shown)
VH: B6 VH
VL: VMTQSPSSLSASIGDRVTITCRASQSIIRYLNWYQHKPGKAPKLLIFAASNLQTGVPSRFSGSGSGTDFTLTISDLQPEDFATYYCQQSYSRPFTFGRGTSLDIK
notes: as for B1
B9: Fab clone LD1-52 (Fab, V domains shown)
VH: B6 VH with T28A
VL: VMTQSPSSLSASVGDRVTITCRASQNIIRYLNWYQQKPGKAPRLLIYGASTLQSGVPSRFSGSGSGTDFTLTISSLQPEDFATYYCQQSYRTPPFTFGPGTKVEIK
notes: as for B1
B10: Fab clone LD1-40 (Fab, V domains shown)
VH: QVKLLESGGGVVQPGRSLRLSCIASGFTLRNYAMHWVRQAPGKGLEWVAGIWFDGSNKNYADSVKGRFTISRDNSKNTLYLQLNSLRDEDTAVYYCARERAARGISRFYYYMDVWGKGTTVTVSP
VL: VMTQSPSSLSASVGDRVTITCRASQSIRSHLNWYQQKPGKAPKLLIYGASTLQSGVPSRFSGSGSGAVFTLTIASLQPEDFATYYCQESYSNPLITFGQGTRLETK
notes: as for B1
B11: Fab clone LD1-110 (Fab, V domains shown)
VH: B10 VH with Y80F, Q82H, L83M, D88A, V93T, A102I, F108Y, Y109N, P125S
VL: VMTQSPSSLSASVGDRVTITCRASQSIRSSLNWYQQKPGKAPKVLIYAASSLQSGVPSRFSGRGSGTDFTLTISSLQPEDFATYYCQQSSSSSWTFGQGTKVEIK
notes: as for B1
B12: Fab clone LD1/2-6-3 (Fab, V domains shown)
VH: B1 VH
VL: VMTQSPSSLSASVGDRVTITCRASQSIIRYLNWYQHKPGKAPKLLIHTASSLQSGVPSRFSGSVSGTDFTLTISSLQPEDFATYYCQQSYTTPYTFGQGTKLQIK
B13: Fab clone LD1/2-6-33 (Fab, V domains shown)
VH: B1 VH
VL: B12 VL with S8F, T48A

Substitutions are numbered along the chain they refer to.

One assay has as its target T1, Rhesus negative rbc, phenotype ccddee …. Put plainly: indirect haemagglutination, Fab fragment, rbc rr.
Take B1: the binding result is “no binding”.

In a further assay the target is T2, Rhesus D antigen. Kind of assay: haemagglutination, rbc.
For B2, the binding result is “binds”.

In the case of B3, the binding result is listed as “binds”.

In the case of B4, the binding result was “binds”.

Turning to B5, the binding result is reported as “binds”.

For B6, the binding result was “binds”.

Take B7: the binding result is reported as “binds”.

Take B8: the binding result is on record as “binds”.

For B9, the binding result was “binds”.

With B10, the binding result was “binds”.

Consider B11, for which the binding result is “binds”.

The next assay deals with T2, Rhesus D antigen. Kind of assay: indirect haemagglutination, Fab fragment, rbc R1R1.
Take B1: the binding result is “binds”.

A further assay has as its target T1, Rhesus negative rbc, phenotype ccddee …. Kind of assay: indirect haemagglutination, rbc ccddee.
B12: the binding result is recorded as “no binding”.

Turning to B13, the binding result is given as “no binding”.

A further assay has as its target T2, Rhesus D antigen. Put plainly: indirect haemagglutination, rbc CCDDee.
For the molecule B12, the binding result was “binds”.

For B13, the binding result is reported as “binds”.

The record behind these values is patent publication US7038020 (ZLB BIOPLASMA, dated 2006).
